The values below come from patent US20010029022A1.

This assay has as its target CDK2 kinase complex (cyclin not given) (UniProt P24941). Kind of assay: cell-based or functional assay.

B1: GST-HPV6b E7 (protein)
chain: MHGRHVTLKDIVLDLQPPDPVGLHCYEQLVDSSEDEVDEVDGQDSQPLKQHFQIVTCCCGCDSNVRLVVQCTETDIREVQQLLLGTLNIVCPICAPKT
The molecule B1 had a CDK2 histone kinase activity, fold activation of 15.8 fold.
